PMC10705946, “^225Ac-iPSMA-RGD for Alpha-Therapy Dual Targeting of Stromal/Tumor Cell PSMA and Integrins” (International Journal of Molecular Sciences, 2023)

What was measured:
[1] = Absorbed radiation dose estimation (N and dose, OLINDA 2.0); format: in vivo, athymic mice
Source text: The %ID/organ data were used to calculate the biokinetic models. […] The ^225Ac decay chain was considered for dosimetry. […] DF (dose factor, mGy/MBq) values were obtained from OLINDA 2.0 code (Dose, Gy = NxDF).

[2] = in vitro; settings: human, diluted human serum (1:5, v/v)
Experimental: After adding 200 μL of ^225Ac-iPSMA-RGD to the diluted human serum (1:5, v/v) in a vial (n = 3), the mixture was kept at 37 °C in a dry bath. At 0.5 h, 1 h, and 3 h intervals, 200 μL of each vial was removed and 1 mL of methanol: acetonitrile (1:1, v/v) was added to precipitate the proteins. The total activity was measured in a NaI(Tl) well-type detector by 218 keV gamma emission of Fr-221 and the solution was centrifuged at 3000 rpm for 5 min. The supernatant was then decanted and the pellet measured to determine ^225Ac binding proteins.

[3] = system: HCT116 cells; assay: Proliferation capability (clonogenic) assay; format: cell-based, human; settings: 2 Gy and 4 Gy tested
Experimental: HCT116 cell line was used to evaluate the ability of a single cell to form colonies after exposure to ^225Ac-iPSMA-RGD treatment, in triplicate. We seeded 500 cells in each well (six-well plate) and treated them with 4.5 Bq/well (2 Gy), […] (4 Gy), and control (no treatment) for 1 h, dissolved in 2 mL of RPMI medium. After exposure, the treatments and medium were removed and replaced with fresh medium. The plates were incubated for 15 days. Surviving colonies were fixed for 10 min with 4% paraformaldehyde at room temperature and washed with type 1 water. Afterward, they were stained with 0.1% crystal violet for 30 min, washed with purified water, and dried. For quantification, 10% acetic acid was added for 5 min to extract the crystal violet and the absorbance was measured at 590 nm in a microplate absorbance reader (EpochTM; BioTek Instruments, Winooski, VT, USA). Statistical analysis was performed with two-way ANOVA followed by Tukey’s multiple comparisons test using GraphPad Prism 5.0 Software. Data are shown as mean ± SEM. A p < 0.05 was considered statistically significant.

[4] = Stability in saline solution (0.9% NaCl) and human serum by radio-HPLC; format: physicochemical; settings: in both saline and serum
Experimental: To evaluate the radiochemical purity, a reversed-phase HPLC system with Waters Millenium 32 software coupled to an in-line UV-Vis and radioactivity detector was used, as previously detailed. To recover free ^225Ac and ^225Ac-HEHA-iPSMA, fractions of 1.0 mL were collected, and the activity quantification was through the 218 keV-gamma emission of Fr-221 by assuming secular equilibrium.

[5] = system: HCT116 tumor and lung, spleen, kidney, liver tissues; assay: Histology (H&E) and immunohistochemistry of organs and tumor; format: in vivo, mice
Experimental: Formalin-fixed paraffin-embedded samples (lung, spleen, kidney and tumor), were sectioned at 4 µm sections and stained with H&E. For immunohistochemical reactions, samples were deparaffinized, hydrated, and subjected to an antigen retrieval protocol (slides were immersed in a prewarmed Citrate-EDTA buffer solution (10mM citric acid, 2 mM EDTA, 0.05% Tween 20, pH 7.0) at 100 °C for 30 min. Endogenous peroxidase was then blocked with 0.9% hydrogen peroxide (H2O2) solution for 5 min. To prevent non-specific binding, the samples were incubated with 5% bovine serum albumin (BSA) for 10 min. After subsequent washes with phosphate-buffered saline (PBS)-Tween (0.05%), samples were incubated overnight at 4 °C with primary monoclonal rabbit anti- Ki-67 [SP6] antibody (Biocare Medi-cal-CRM 325A, Pacheco, CA, USA). After subsequent washing, samples were incubated with secondary HRP donkey anti-rabbit IgG (minimal x-reactivity) antibody (Biolegend-406401 San Diego, CA) for 1 h. For mitochondrial permeabilization processes estimation, the samples were incubated overnight at 4 °C with unconjugated Bcl-2 (C2) sc-7882 antibody (Santa Cruz Biotechnology Inc., Dallas, TX, USA). As a secondary antibody, we used m-IgG1 BP-HRP: sc-525408 (Santa Cruz Biotechnology Inc., Dallas, TX, USA). Samples were incubated for 1 h. For apoptotic cell estimation, unconjugated active (cleaved) Caspase-3 Monoclonal Antibody bsm-33199M (Bioss Inc., Woburn, MA, USA) was used. The samples were incubated overnight at 4 °C, and the secondary antibody was goat Anti-Mouse IgG (Fc specific)–peroxidase antibody A2554 (Millipore-Sigma Aldrich, Merck KGaA, Darmstadt, Germany). Samples were incubated for 1 h. Both primary and secondary antibodies were used at a 1:100 dilution. To visualize the immunoreactions, the samples were washed with distilled water and Tris-buffered saline-Tween (TBST) for 5 min, and the diaminobenzidine (DAB) (Dako Liquid DAB+ Substrate Chromogen System K3468) was applied for 60 s. Excess chromogen was removed by washing with PBS-Tween. Finally, the slides were counterstained with Harris hematoxylin, dehydrated, and coverslipped. As a negative control, immunoreactions were performed using the same method with PBS instead of the primary antibody. Images were captured using a Lumenera INFINITY X-32 MP camera in a Carl Zeiss Axiostar microscope.

[6] = system: HCT116 cells; assay: Viability (cytotoxicity) assay at 24 h; format: cell-based, human; settings: 2 to 4 Gy
Experimental: Cytotoxic assays were performed in triplicate (n = 6) using HCT116 cells. After harvesting each cell line, 10,000 cells per well were placed in a 96-well plate and incubated at 37 °C to allow adherence. After 24 h, the culture medium was removed, and treatments (2 Gy, 4 Gy) were placed in each well. To deliver 2 and 4 Gy of radiation dose, 6 Bq/well and 12 Bq/well were added and exposed for 15 h. Then, the treatments were removed and replaced with the medium. The cytotoxicity was evaluated at 24 h by using the Cell proliferation assay (Roche Diagnostics GmbH, Mannheim, Germany). Statistical analysis was performed with two-way ANOVA followed by Tukey’s multiple comparisons test using GraphPad Prism 5.0 Software. Data are shown as mean ± SEM. A p < 0.05 was considered statistically significant.

[7] = mice, day 11 after treatment
[8] = system: phosphorylated H2A.X in HCT116 cells; assay: DNA double-stranded breaks assay (phosphorylated H2A.X foci); format: cell-based, human; settings: HCT116, 2 Gy and 4 Gy
Experimental: For the evaluation of DNA double-stranded breaks (DSBs), the phosphorylation of the Ser-139 gamma histone variant H2A.X (γH2A.X) was used as a biomarker. HCT116 cells were grown on a glass slide after exposure of 4.5 Bq (2 Gy) and 9.0 Bq (4 Gy) of ^225Ac-iPSMA-RGD for 60 min. The anti-phospho-histone H2A.X (ser139) cl 6L16 ZooMAb (Cat. ZRB05636, Merck, Darmstadt, Germany) antibody was used as the primary antibody. […] To quantify the foci, clear and easily distinguishable dots were counted. At least 30 cells were imaged per slide, and the average number of foci per cell was calculated. Statistical analysis was performed with two-way ANOVA followed by Tukey’s multiple comparisons test using GraphPad Prism 5.0 Software. Data are shown as mean ± SEM. A p < 0.05 was considered statistically significant.

[9] = HCT116 tumor, immunohistochemistry

## N=C(N)NCCC[C@@H]1NC(=O)[C@H](CCCCNC(=O)CCCN2C(=O)CC(SC[C@H](NC(=O)c3ccc(NNC(=S)Nc4ccc(CC5CN(CC(=O)O)CCN(CC(=O)O)CCN(CC(=O)O)CCN(CC(=O)O)CCN(CC(=O)O)CCN5CC(=O)O)cc4)nc3)C(=O)N[C@@H](Cc3ccc4ccccc4c3)C(=O)NCCCC[C@H](NC(=O)N[C@@H](CCC(=O)O)C(=O)O)C(=O)O)C2=O)NC(=O)[C@@H](Cc2ccccc2)NC(=O)[C@H](CC(=O)O)NC(=O)CNC1=O (some centres unmarked) [^225Ac-iPSMA-RGD, ^225Ac-HEHA-HYNIC-iPSMA-RGD, metal not drawn]
[1]; athymic mice
  Radiation Absorbed Dose, Kidney: 17.63 Gy/37 kBq
  Radiation Absorbed Dose, Liver: 15.85 Gy/37 kBq
[1]; athymic mice, HCT116 tumor
  Radiation Absorbed Dose, Tumor: 237.07 Gy/37 kBq
[1]; athymic mice, HCT116 tumor, t = 0 to 11 days
  Total nuclear transformations N=∫t=0t=11dAtdt, Tumor: 7.83 MBq·h
[1]; athymic mice, t = 0 to 11 days
  Total nuclear transformations N=∫t=0t=11dAtdt, Kidney: 3.52 MBq·h
  Total nuclear transformations N=∫t=0t=11dAtdt, Liver: 5.23 MBq·h
[1]; mice, from Table 1
  Tumor-to-kidney radiation dose ratio: thirteen
  Tumor-to-liver radiation dose ratio: fifteen
[2]
  fraction unbound at 3 h: 0.923
[3]
  Reduction of proliferation capability: 65%
[4]; 5 h after preparation
  Decrease of radiochemical purity: 2%
[4]; 24 h after preparation
  Decrease of radiochemical purity: 10%
[4]; 72 h after preparation
  Decrease of radiochemical purity: 30%
[5]; [9]
  Bcl-2 expression in tumor: inhibited the Bcl-2 expression
  Caspase-3 activity in tumor: upregulated the Caspase-3 activity
  Tumor proliferative activity (Ki67 expression) vs untreated mice: significantly lower
[5]; treated mice vs untreated mice
  Histological (H&E) evaluation of lung, spleen, kidney and liver: no pathologic changes
[6]
  Cell viability: dose-dependent decrease in cell viability
[7]
  Renal or hepatic function damage: no damage to renal or hepatic function was detected
  Serum alanine aminotransferase: 70 ± 8 IU/L
  Serum aspartate aminotransferase: 141 ± 19 IU/L
  Serum creatinine: 0.215 ± 0.071 mg/dL
[8]
  Average foci of phosphorylated H2A.X: 19
